Biological target: NIA–Isu1 complex with C. thermophilum Isu1 (S. cerevisiae | E. coli (endogenous in the expression host) | C. thermophilum) (UniProt P25374)
Assay: pull-down; competition: Yfh1^GST (2.5 μM) with NIA (5 μM) and Isu1Ct (7.5 μM), then Yah1 WT (increasing concentrations, 50 μM) or Yah1(DD/KK) (50 μM) added; glutathione resin; densitometry, amount without Yah1 set as 100%; buffer PD

Chain of NIA–Isu1 complex with C. thermophilum Isu1 (S. cerevisiae | E. coli (endogenous in the expression host) | C. thermophilum) (P25374 whole entry, looked up, one chain of several): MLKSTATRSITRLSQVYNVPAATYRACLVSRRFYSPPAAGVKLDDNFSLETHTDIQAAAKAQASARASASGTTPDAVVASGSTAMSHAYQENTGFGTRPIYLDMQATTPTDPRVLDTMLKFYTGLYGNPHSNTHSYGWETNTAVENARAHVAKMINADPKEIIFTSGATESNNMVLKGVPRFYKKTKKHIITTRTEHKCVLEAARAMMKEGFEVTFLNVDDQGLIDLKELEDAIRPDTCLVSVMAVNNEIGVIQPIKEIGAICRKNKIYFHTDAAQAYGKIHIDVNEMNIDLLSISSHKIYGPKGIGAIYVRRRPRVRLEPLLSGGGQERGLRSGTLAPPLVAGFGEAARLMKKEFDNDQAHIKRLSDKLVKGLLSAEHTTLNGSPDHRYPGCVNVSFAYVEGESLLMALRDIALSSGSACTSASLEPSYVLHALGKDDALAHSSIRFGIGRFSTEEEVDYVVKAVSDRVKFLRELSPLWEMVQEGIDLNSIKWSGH

- percent of the control left pulled down with Yfh1^GST at 75 μM Yah1: 35%
B1: Yah1 (untagged, holo) (natural protein)
chain: IAAHLLRTSPSLLTRTTTTTRFLPFSTSSFLNHGHLKKPKPGEELKITFILKDGSQKTYEVCEGETILDIAQGHNLDMEGACGGSCACSTCHVIVDPDYYDALPEPEDDENDMLDLAYGLTETSRLGCQIKMSKDIDGIRVALPQMTRNVNNNDFS

From publication PMC8888459
